In doi:10.1101/2022.11.30.518485 (bioRxiv, 2022):

How the values were obtained:
[1] = molecular target: Abeta in AD (senile plaques) (Homo sapiens, UniProt P05067); test: immunostaining of cells or tissue
[2] = molecular target: tau pathology in PSP and AD (Homo sapiens, UniProt P10636); test: immunostaining of cells or tissue
Sequence of tau pathology in PSP and AD (P10636 whole entry): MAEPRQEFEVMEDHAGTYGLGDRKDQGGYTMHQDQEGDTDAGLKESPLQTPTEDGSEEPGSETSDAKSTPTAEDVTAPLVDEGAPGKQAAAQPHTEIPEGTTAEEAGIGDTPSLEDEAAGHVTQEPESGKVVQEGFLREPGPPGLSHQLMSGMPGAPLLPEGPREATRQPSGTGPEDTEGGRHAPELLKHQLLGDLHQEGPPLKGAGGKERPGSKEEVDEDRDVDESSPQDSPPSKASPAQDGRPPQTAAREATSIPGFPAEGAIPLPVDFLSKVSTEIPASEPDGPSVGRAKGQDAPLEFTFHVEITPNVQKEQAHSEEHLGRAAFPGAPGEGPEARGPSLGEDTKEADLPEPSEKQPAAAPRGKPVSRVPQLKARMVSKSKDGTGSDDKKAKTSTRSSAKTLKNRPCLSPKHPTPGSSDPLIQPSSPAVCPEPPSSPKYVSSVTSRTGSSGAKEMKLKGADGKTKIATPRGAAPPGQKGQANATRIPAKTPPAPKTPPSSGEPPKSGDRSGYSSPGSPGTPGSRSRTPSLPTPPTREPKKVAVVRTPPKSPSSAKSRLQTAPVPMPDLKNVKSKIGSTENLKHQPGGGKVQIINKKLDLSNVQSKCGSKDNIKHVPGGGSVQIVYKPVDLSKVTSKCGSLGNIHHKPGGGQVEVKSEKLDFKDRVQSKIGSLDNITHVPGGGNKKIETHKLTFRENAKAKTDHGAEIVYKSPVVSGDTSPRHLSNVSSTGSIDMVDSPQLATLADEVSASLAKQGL

B1: 306C7B3 (native IgG purified from the hybridoma clone) (antibody, V domains shown)
VH: EVQLVESGGGLVKPGGSRKLSCAASGFTFSDHGMHWVRQAPEKGLEWVAYISSGSSTIYYADTVKGRFTISRDNAKNTLFLQMTSLRSEDTAMYYCARSYIPYWGQGTLVTVSA
VL: DVVMTQTPLSLPVSLGDQASISCRSSQSLVHSNGNTYLHWYLQKPGQSPKLLIYKVSNRFSGVPDRFSGSGSGTDFTLKISRVEAEDLGVYFCSQSTHVPWTFGGGTKLEIK
B1: no binding (tested: 1:10000 dilution) [1]; no binding (tested: 1:10000 dilution) [2].
